We go through two molecules from publication PMC7293249.

Broadly, the EC50 is the midpoint of the concentration-response curve.

The target in test [1] is human activated protein C (human) (UniProt P04070).
The target is the same in test [2]. This is another data set of the same source.
Test [3] shares this target. Briefly: ELISA; hAPC or hPC coated directly on Maxisorp plates at 100 ng/well in PBS/Ca2+; antibodies titrated, 1 h at RT; detection with HRP anti-human Fc. A general note: In an ELISA, binding on a coated surface is turned into a signal by an enzyme label.
For test [4] the target is unchanged. The source holds these as a separate data set.
Test [5] shares this target. This is another data set of the same source.
Test [6] has the same target. The test can be described thus: ELISA; APC-binding ELISA of the purified Fabs on human APC and Gla-domainless APC; format not told.

B1: type I anti-APC mAb TPP-2312 (BAY1316786) (antibody, V domains shown)
VH: EVQLLESGGGLVQPGGSLRLSCAASGFTFSSYWMSWVRQAPGKGLEWVSGVSWNGARTHYADSVKGRFTISRDNSKNTLYLQMNSLRAEDTAVYYCALTGRSGWMRFPNWFDPWGQGTLVTVSS
VL: QSVLTQPPSVSGAPGQRVTISCTGSSSNIGAAYDVHWYQQLPGTAPKLLIYGNNKRPSGVPDRFSGSKSGTSASLAITGLQAEDEADYYCQSYDSSLSGSVFGGGTKLTVL
In test [1], B1 came in with an inhibition of APC amidolytic activity (Spectrozyme PCa), IC50 of 4.8 nM and a maximal inhibition of APC amidolytic activity (Spectrozyme PCa), mAb 0.5-500 nM of 98%. The TM–TGA in normal human plasma, increase of thrombin generation, EC50 in test [2] came to 38 nM. The same molecule registered an EC50 in test [3] of 0.4 nM. In test [4], this molecule returned a Protac-aPTT in FVIII-antibody-treated normal human plasma, IC50 of 5 nM; a Protac-aPTT in hemophilia A plasma, inhibition of APC activity, IC50 of 5 nM; a Protac-aPTT in hemophilia A plasma, maximal inhibition of APC activity of 87%. Also, in test [5], the Protac-aPTT in normal human plasma, inhibition of APC anticoagulant activity, IC50 is 7 nM and the Protac-aPTT in normal human plasma, maximal inhibition of APC anticoagulant activity was found to be 93%.

B2: C25K23Fab (type I Fab, TTP-2781) (Fab, V domains shown)
VH: EVQLLESGGGLVQPGGSLRLSCAASGFTFSSYWMSWVRQAPGKGLEWVSGVSWNGSRTHYADSVKGRFTISRDNSKNTLYLQMNSLRAEDTAVYYCALTGRSGWMRFPNWFDPWGQGTLVTVTS
VL: QSVLTQPPSASGTPGQRVTISCTGSSSNIGAAYDVHWYQQLPGTAPKLLIYGNNKRPSGVPDRFSGSKSGTSASLAISGLRSEDEADYYCQSYDSSLSGSVFGGGTKLTVL
As for B2, the half-maximal effective concentration (EC50) in test [6] is 2 to 4 nM.
